Tests used:
[1] = Middle cerebral artery occlusion; assay type: in vivo, mouse
Protocol: Middle Cerebral Artery Occlusion (MCAD): To occlude the middle cerebral artery, mice were anesthetized with 1.5-2% isoflurane and maintained at normothermic temperature. A 7-0 monofilament with an enlarged silicone tip was passed through the right internal carotid artery to the base of the middle cerebral artery. Occlusion was confirmed by laser-Doppler flowmetry with a probe placed on thinned skull over the lateral parietal cortex. After 60 min of occlusion, the filament was removed and reperfusion was verified. At 24 h of reperfusion, the brain was harvested, sectioned into five coronal slabs, and stained with the vital dye, triphenyltetrazolium chloride. Infarct area was measured on the anterior and posterior surfaces of each slab and integrated to obtain infarct volume with correction for tissue swelling. The investigator performing the surgery and analyzing infarct size was unaware of the genotype of the mouse.
Neurobehavioural Activity: Spontaneous motor activity was evaluated for 5 min by placing the animals in a mouse cage for 5 minutes. […] Neurological deficits were evaluated by an observer blinded to the treatment and genotype of the animals with a scale of 0-4 (0 no neurological deficit, 4 severe neurological deficit). […] Recordings were evaluated by an observer blinded to the treatment and genotype of the animals. […]

PAR polymer = experiment: Competition binding of unlabeled PAR polymer against [32P]-labeled PAR polymer
Protocol: The affinity of Iduna and Iduna-YRAA for PAR binding was determined by a competition assay with increasing concentrations of unlabeled PAR polymer against 2.5 nM [^32P]-labeled PAR polymer (mean size of 40 ADP-ribose units) (FIG. 29). […] The PAR polymer synthesized by in vitro automodification of PARP-1 has a mean length of 40 ADP-ribose residues and accordingly the concentration of PAR is given as a function of polymer molecules with a mean size of 40 ADP-ribose units. These concentrations of PAR polymers are within the range of polymer concentrations found in intact cells during NMDA excitotoxicity and N-methyl-N-nitro-N-nitrosoguanidine (MNNG) toxicity. PAR polymer fails to bind to Iduna-YRAA (FIG. 29). […] The observed Kd is 10 times less than the PAR polymer concentration found after NMDA-induced excitotoxicity in cortical neurons.
Nitrocellulose PAR-binding Assay: Synthetic peptides or purified proteins were diluted in TBS-T buffer (1 μg/μl) and loaded onto a nitrocellulose membrane (0.05 μm) using a dot blot manifold system (Life Technologies). The membranes were washed once with TBS-T buffer, removed from the manifold and air dried. The membranes were then incubated in 10 ml of TBS-T buffer containing an indicated concentration of both [^32P]-labeled automodified PARP-1 and [^32P]-labeled PAR polymer for 3 h at room temperature with constant shaking. The membranes were washed with TBS-T buffer at 4° C. until no radioactivity could be detected in the waste. Finally, the membrane was air dried and subjected to autoradiography on Bio-Max MR (Kodak) films or analyzed by Cerenkov counting using an Instant Imager system (Perkin Elmer).

[2] = Intrastriatal NMDA lesion in Iduna transgenic mice; assay type: in vivo, mouse; conditions: Iduna transgenic mice vs littermate wild type, intrastriatal NMDA 20 nmoles
Excerpt: To determine whether Iduna is protective in vivo, transgenic mice overexpressing Iduna were generated by knocking in Iduna into the ROSA26 genomic locus resulting in a four-fold expression over wild type littermate mice (FIGS. 58-60). NMDA induced lesions are reduced by approximately 80% in the Iduna transgenic mice compared to littermate wild type control animals following an intrastriatal injection of NMDA (20 nmoles) (FIGS. 61 and 62).
Transgenic Mice: ES cells were targeted and screened as described in Soriano et al. Briefly, the pROSA26PA-iduna plasmid was linearized with KpnI and electroporated into ES cells derived from mouse strain 129SvEv. Twelve of 277 G418-resistant colonies had undergone correct homologous recombination, as determined by Southern blot and PCR of the ROSA26-Iduna allele. Two of these ROSA26-Iduna ES clones were injected into C57BL/6 blastocysts. Resulting chimeras were bred to C57BL/6 mice and offspring were tested for germline transmission. Heterozygous mice for the Rosa26PA-Iduna allele were crossed to Nestin-Cre^(+/+) mice (on C57BL/6 background), which were obtained from the Jackson Laboratory, to obtain ROSA26PA-Iduna^(+/loxP)/Nestin-Cre^(−/+) mice. Nestin-cre/ROSA26PA-Iduna transgenic mice, in which Cre recombinase expression is under the control of the nestin promoter, specifically expresses Iduna in brain. […]

B1: Iduna: novel NMDA-induced cell survival protein, PAR-dependent E3 ligase; 359 amino acids (protein)
chain: MEMAGCGEIDHSINMLPTNKKANESCSNTAPSLTVPECAICLQTCVHPVSLPCKHVFCYLCVKGASWLGKRCALCRQEIPEDFLDKPTLLSPEELKAASRGNGEYAWYYEGRNGWWQYDERTSRELEDAFSKGKKNTEMLIAGFLYVADLENMVQYRRNEHGRRRKIKRDIIDIPKKGVAGLRLDCDTNTVNLARESSADGADSGSAQTGASVQLAVPSSTRPLTSVDGQLTSPVTPSPDAGISLEDSFAHLQLSGDSIAERSHRGEGEEDHESPSSGRVPDTSVEETESDASSDSEDAPVVVAQHSLTQQRPLVPNGNQTVADQSDRSGTDRSVAGGGTMSVNVRSRRPDGQCTVIEV
[1]; Iduna transgenic mice vs wild type, 60 min occlusion
  reduction of infarct volume: 50%
[1]; Iduna-Tg mice vs WT
  neurological function following stroke: improved neurological function
PAR polymer; competitive binding curve
  maximum binding capacity (Bmax): 3.04 ± 0.16 µmol
PAR polymer; homologous competitive binding curve, Cheng-Prusoff equation, read-out: dissociation constant (Kd)
  Kd: 12 nM
PAR polymer; unlabeled PAR polymer against 2.5 nM [32P]-labeled PAR polymer, mean size 40 ADP-ribose units, read-out: EC50 of wild type Iduna for PAR polymer
  EC50: 14.5 ± 0.13 nM
[2]
  reduction of NMDA induced lesions: approximately 80%
